± gives the standard deviation of the averaged measurements.
System: ATP
Experiment: switch fluorescence ratio, 500 uM ATP over buffer (Cy3 cluster intensity, sum of 5 cycles each) (fold (ratio)); higher = stronger signal-on switching upon ATP binding; sequences stand for … in TCGTCGGCAGCGTCAGATGTGTATAAGAGACAGTTTTTTTTTTTTTTTTTTTTTTTTT…TC
Conditions: aptamer strand: ATP DNA aptamer (quencher-CACCTGGGGGAGTATTGCGGAGGAAGG + anchor), 100 nM annealed; ATP concentration: 500 uM
Summary of the method: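 Five buffer/ATP imaging cycles were run on Cy3-labelled switching-strand clusters on a modified Illumina MiSeq flow-cell, with NaOH stripping and re-annealing between cycles. In each cycle, clusters annealed to 100 nM quencher-labelled ATP aptamer were imaged in selection buffer, then after 15 min with 500 uM ATP at 22 °C. Per cluster, the fluorescence ratio is summed target-cycle over summed buffer-cycle Cy3 intensity, averaged per switch-domain sequence. Only clusters within 100-1000 RFU were kept.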
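Further: ATP exposure 15 min at 22 °C before imaging.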

Sequence | switch fluorescence ratio
AATGGTAAGG | 0.963 ± 0.033
AATGGTTCGC | 1.009 ± 0.0069
AATGGTTCTC | 0.985 ± 0.022
AATGGTTGAC | 0.988 ± 0.017
AATGTAAAG | 1.03 ± 0.011
AATGTAGACT | 1.017 ± 0.0084
AATGTAGCAC | 1.048 ± 0.0063
AATGTCAGAG | 0.986 ± 0.02
AATGTCAGGA | 1.01 ± 0.044
AATGTCCGTC | 1.04 ± 0.046
AATGTCGCGC | 0.961 ± 0.016
AATGTCTGTA | 1.01 ± 0.044
AATGTGGGTG | 1.03 ± 0.045
AATGTGGTCG | 0.983 ± 0.085
AATGTGTGGG | 1.01 ± 0.02
AATGTGTTG | 0.984 ± 0.041
AATGTGTTTG | 0.992 ± 0.042
AATGTTAGTG | 0.958 ± 0.036
AATGTTATTA | 0.995 ± 0.048
AATGTTCACG | 1.02 ± 0.019
AATGTTCATG | 1.031 ± 0.0061
AATGTTGTTT | 0.976 ± 0.02
AATGTTTTCT | 1.05 ± 0.057
AATGTTTTGT | 0.994 ± 0.021
AATTAACCCA | 1.05 ± 0.051

Sequence | switch fluorescence ratio
AATTAACTAT | 1.02 ± 0.027
AATTAACTCT | 1.05 ± 0.02
AATTAAGATA | 0.991 ± 0.03
AATTAATTCC | 1.07 ± 0.026
AATTAATTGG | 0.994 ± 0.012
AATTACTGG | 1 ± 0.031
AATTAGGAGT | 1.06 ± 0.079
AATTAGGATT | 0.99 ± 0.016
AATTAGGGGA | 1 ± 0.014
AATTAGGGTG | 1.09 ± 0.05
AATTAGGTTT | 1 ± 0.035
AATTAGTACG | 0.981 ± 0.052
AATTAGTTAT | 0.9835 ± 0.0033
AATTATCTGC | 0.976 ± 0.015
AATTATCTGT | 0.9792 ± 0.0065
AATTATGGGA | 0.986 ± 0.051
AATTATTACT | 1.02 ± 0.034
AATTATTTTA | 1.022 ± 0.0018
AATTCCTACG | 2.571 ± 0.02
AATTCCTAGG | 1.03 ± 0.025
AATTCGAGAT | 1.01 ± 0.034
AATTCGCACG | 1.034 ± 0.006
AATTCTAATA | 0.9997 ± 0.0033
AATTCTGAGA | 1.02 ± 0.048
AATTGAAGTG | 1.022 ± 0.01

Sequence | switch fluorescence ratio
AATTGCCGCG | 1.02 ± 0.055
AATTGCCGTG | 0.99946 ± 0.00023
AATTGCGGGA | 0.9893 ± 0.0085
AATTGGAATA | 0.956 ± 0.038
AATTGGGACA | 1 ± 0.01
AATTGGGGTT | 1.012 ± 0.0052
AATTGGGTTG | 0.957 ± 0.026
AATTGGTGGT | 0.965 ± 0.032
AATTGTATGG | 1.04 ± 0.044
AATTGTATGT | 0.989 ± 0.029
AATTGTGAAA | 1.01 ± 0.013
AATTGTGAGG | 1.01 ± 0.023
AATTGTGCCG | 1.1 ± 0.17
AATTGTGTTT | 1.01 ± 0.021
AATTGTTGCT | 0.99301 ± 0.00023
AATTTAAAG | 0.992 ± 0.037
AATTTAAAGT | 0.951 ± 0.052
AATTTAATTT | 1.015 ± 0.006
AATTTAGACG | 1.016 ± 0.0083
AATTTAGTAG | 1 ± 0.013
AATTTATAGC | 0.977 ± 0.034
AATTTATTGG | 1.01 ± 0.013
AATTTCGTTG | 0.999 ± 0.029
AATTTCTCGT | 0.996 ± 0.016
AATTTGATAG | 0.988 ± 0.018

Sequence | switch fluorescence ratio
AATTTGATGC | 0.985 ± 0.018
AATTTGCAGT | 1.004 ± 0.0043
AATTTGCGGT | 0.988 ± 0.022
AATTTGCTAA | 0.981 ± 0.013
AATTTGGGAA | 0.999 ± 0.017
AATTTGGGGG | 1.02 ± 0.039
AATTTGGGGT | 0.995 ± 0.035
AATTTGGTG | 1.026 ± 0.0011
AATTTGTATG | 0.991 ± 0.028
AATTTGTTTG | 1 ± 0.013
AATTTTAAGC | 0.967 ± 0.041
AATTTTAATT | 1 ± 0.027
AATTTTAGAA | 1 ± 0.053
AATTTTAGTG | 0.986 ± 0.02
AATTTTGGAG | 0.996 ± 0.02
AATTTTGGTA | 0.994 ± 0.016
AATTTTTATT | 1.039 ± 0.0073
AATTTTTCTG | 0.9869 ± 0.008
AATTTTTTT | 0.992 ± 0.01
ACAAAAGACT | 1.19 ± 0.25
ACAAAATTTT | 1.03 ± 0.067
ACAAACGGGT | 1.44 ± 0.073
ACAAACGTTC | 1.34 ± 0.13
ACAAAGTGTG | 1.03 ± 0.035
ACAAATTGGG | 1.03 ± 0.092

Sequence | switch fluorescence ratio
ACAACGGCCG | 1.05 ± 0.012
ACAACGGGGG | 1.05 ± 0.025
ACAAGAAAGG | 1.01 ± 0.035
ACAAGATTTT | 0.9788 ± 0.0046
ACAAGCTTGT | 0.975 ± 0.063
ACAAGGAGGC | 0.983 ± 0.014
ACAAGGGAGC | 0.954 ± 0.018
ACAAGGGATG | 0.972 ± 0.041
ACAAGGGGCG | 1.05 ± 0.079
ACAAGTGCGG | 1.05 ± 0.024
ACAATGAAGA | 1.01 ± 0.039
ACAATGGATG | 0.994 ± 0.041
ACAATGGGTA | 1.03 ± 0.024
ACAATTAAGC | 1.04 ± 0.028
ACAATTGCGT | 1.05 ± 0.024
ACAATTGGTC | 1.02 ± 0.034
ACACACGACG | 1.29 ± 0.013
ACACCAGGGG | 4.18 ± 0.57
ACACCCGCGC | 1.45 ± 0.064
ACACCTCATA | 1.1 ± 0.039
ACACGATTGG | 0.991 ± 0.014
ACACGCAAAA | 1.571 ± 0.0081
ACACGGGCCT | 1.03 ± 0.062
ACACGGGGGA | 1.01 ± 0.024
ACACGGTCTA | 1.01 ± 0.04

Sequence | switch fluorescence ratio
ACACGTCTGG | 1.01 ± 0.029
ACACTAGGGC | 1.04 ± 0.02
ACACTAGTGT | 0.985 ± 0.032
ACACTATAAT | 1.09 ± 0.014
ACACTATTAT | 1.07 ± 0.033
ACACTGCTCG | 1.05 ± 0.011
ACACTTTCG | 1.018 ± 0.0011
ACAGAATAGG | 1.018 ± 0.0027
ACAGACAGCG | 1.06 ± 0.022
ACAGACTATA | 1.094 ± 0.0097
ACAGACTTGT | 1.01 ± 0.037
ACAGAGGAGC | 1.062 ± 0.006
ACAGAGGGAT | 1.02 ± 0.018
ACAGCAGCGG | 1.05 ± 0.021
ACAGCCACGG | 1.18 ± 0.038
ACAGCTGGGG | 1.0159 ± 0.00055
ACAGGAAGAT | 1.03 ± 0.035
ACAGGAGCTT | 1.05 ± 0.04
ACAGGCGCTT | 1.01 ± 0.013
ACAGGCGGCT | 1.1 ± 0.061
ACAGGGAGTT | 0.9911 ± 0.0078
ACAGGGGGGC | 1.06 ± 0.03
ACAGGGTGTC | 1.05 ± 0.031
ACAGGTGGAA | 1.235 ± 0.01
ACAGGTTGCG | 0.9971 ± 0.0082

Sequence | switch fluorescence ratio
ACAGTAATGG | 1.05 ± 0.041
ACAGTACACA | 1.3 ± 0.061
ACAGTATGGT | 1.02 ± 0.029
ACAGTCGACT | 1.032 ± 0.0074
ACAGTCGGTG | 1.028 ± 0.0066
ACAGTCTGAC | 1.0082 ± 0.00053
ACAGTGGCAT | 0.997 ± 0.034
ACAGTTAAGT | 1.04 ± 0.039
ACAGTTTTCT | 1.01 ± 0.024
ACATAAGAGG | 1.05 ± 0.013
ACATACAGGG | 1.31 ± 0.038
ACATACGGGG | 1.3 ± 0.1
ACATACTTTA | 1.32 ± 0.015
ACATAGAGAT | 1.02 ± 0.039
ACATAGATTT | 1.03 ± 0.029
ACATAGTTGG | 0.966 ± 0.024
ACATATATGG | 0.9752 ± 0.0051
ACATATTTGA | 1.01 ± 0.03
ACATCAGAAG | 1.02 ± 0.039
ACATCCAATT | 0.99 ± 0.019
ACATCTAGGC | 1.069 ± 0.0093
ACATCTCGTT | 0.96 ± 0.041
ACATGATGTT | 1 ± 0.028
ACATGGCATC | 1.05 ± 0.046
ACATGGGCTA | 1.09 ± 0.11

Sequence | switch fluorescence ratio
ACATGGGGAG | 1.02 ± 0.016
ACATTAATTC | 0.99573 ± 0.00079
ACATTATCCA | 1.01 ± 0.0068
ACATTATTTC | 1.05 ± 0.033
ACATTCACGT | 1.52 ± 0.033
ACATTCAGTA | 0.991 ± 0.014
ACATTGACGC | 1.08 ± 0.021
ACATTGGCGG | 0.993 ± 0.066
ACATTGGTAT | 1 ± 0.011
ACATTGGTGG | 0.993 ± 0.026
ACATTTGGGG | 1.03 ± 0.066
ACATTTTACT | 1.12 ± 0.014
ACCAAAGGCT | 1.03 ± 0.04
ACCAAATTAT | 1.03 ± 0.058
ACCAAGCCAT | 1.09 ± 0.077
ACCAAGGGGT | 1.02 ± 0.054
ACCAATGTTC | 1.03 ± 0.033
ACCAATTGGT | 1.02 ± 0.012
ACCAATTTGC | 1.05 ± 0.043
ACCACAAAGG | 1.48 ± 0.61
ACCACCTTAC | 2.32 ± 0.29
ACCACGGTTG | 1.07 ± 0.023
ACCAGGCTTG | 1.02 ± 0.016
ACCAGTGATG | 1.01 ± 0.039
ACCATCAAAT | 0.9853 ± 0.0068

Reference: the supplement of paper PMC10126150
